Km, kcat and kcat/Km data for 1 substance are collected here from US20050207981A1, “Compositions and methods for determining substrate specificity of hydrolytic enzymes” (The Regents of the University of California, priority 2003, published 2005).

The data set deals with C[C@H](NC(=O)[C@H](C)NC(=O)[C@H](CCCNC(=N)N)NC(=O)[C@H](CCCNC(=N)N)NC(=O)c1cc(F)ccc1O)C(N)=O. In words: purified protein, by the assay type. Conditions: other: detailed kinetic analysis of substrate hydrolysis; pH 8.0; 25.0 °C.

Experimental: The combinatorial tetrapeptide library thus obtained was used to assay the substrate specificity of bovine p-chymotrypsin as follows. A 1 μL aliquot of each library member in DMSO was diluted to 100 μL in one well of a black polystyrene 96-well plate with a solution containing 50 mM Tris-HCl pH 8.0, 100 mM NaCl, 20 mM CaCl2, 10 μM [Tb(EDTA)]+and 10 μM enzyme. The resulting mixture was allowed to react at 25° C. for 30 min. Hydrolysis was followed by observing the increase in fluorescence at 546 nm upon excitation at 250 nm.
To elucidate any cooperativity between subsites, a series of single substrates was synthesized and assayed with chymotrypsin. […] Peptide sequences were designed to compare the most reactive amino acid in each sublibrary (Arg) with an amino acid with moderate reactivity and neutral functionality (Ala). Alanine, a small, neutral amino acid, was included in the P4′ position in all peptides, providing extended backbone interactions to enhance turnover. The kinetic data obtained from single substrate hydrolysis were analyzed using the standard Michaelis-Menten equation.

Usually Km stands for the concentration of substrate that gives half-maximal velocity. The kcat is the maximal rate divided by the concentration of active sites. Usually kcat/Km stands for the second-order rate constant that governs catalysis at low substrate concentration. Turning to bovine α-chymotrypsin (Bos taurus), the Km came out at 500 ± 100 µM, the kcat stood at 2.2 ± 0.2 s⁻¹ and the kcat/Km was 4400 ± 1000 M⁻¹ s⁻¹.
